In paper PMC10512533, “A strategy to enhance and modify fatty acid synthesis in Corynebacterium glutamicum and Escherichia coli: overexpression of acyl-CoA thioesterases” (Microbial Cell Factories, 2023):

What was measured:
Test in all cases: thioesterase assay, Lineweaver-Burk plot
TesA = target: T1, TesA (Corynebacterium glutamicum, UniProt Q8NMW3); type: biochemical; details: optimal substrate; assay conditions of the kinetics not stated (optimum 30 °C, pH 8.0)
T1 construct: gene Cgl2451; full length in pET-28a(+), His-tag (Ni-NTA), E. coli BL21(DE3); forward primer encodes MAANN start; TE1 family
T1 sequence (Q8NMW3 1-155): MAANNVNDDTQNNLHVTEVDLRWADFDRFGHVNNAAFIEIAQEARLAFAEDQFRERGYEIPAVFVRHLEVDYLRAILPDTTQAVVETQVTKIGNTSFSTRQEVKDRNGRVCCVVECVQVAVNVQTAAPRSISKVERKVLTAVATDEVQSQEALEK
Description: thioesterase assay, Lineweaver-Burk plot on TesA | of TesA estimated through fitting to the Michaelis–Menten equation

[1] = substrate: CCCCCCCC(=O)SCCNC(=O)CCNC(=O)[C@H](O)C(C)(C)COP(=O)(O)OP(=O)(O)OC[C@H]1O[C@@H](n2cnc3c(N)ncnc32)[C@H](O)[C@@H]1OP(=O)(O)O; type: biochemical, Corynebacterium glutamicum; details: optimal substrate, assay conditions of the kinetics not stated (optimum 30 °C, pH 8.0), authors' other TesB properties (Fig. 5) come from their previous studies
[2] = substrate: CC(=O)SCCNC(=O)CCNC(=O)[C@H](O)C(C)(C)COP(=O)(O)OP(=O)(O)OC[C@H]1O[C@@H](n2cnc3c(N)ncnc32)[C@H](O)[C@@H]1OP(=O)(O)O; type: biochemical, Corynebacterium glutamicum; details: optimal substrate, assay conditions of the kinetics not stated (optimum 30 °C, pH 9.0)

Molecule: CCCCCCCCCCCC(=O)SCCNC(=O)CCNC(=O)[C@H](O)C(C)(C)COP(=O)(O)OP(=O)(O)OC[C@H]1O[C@@H](n2cnc3c(N)ncnc32)[C@H](O)[C@@H]1OP(=O)(O)O [C12, lauroyl-CoA]
- Km (TesA): 1380 µM

B1: TesB (Corynebacterium glutamicum ATCC 13032) (protein)
chain: MKTIEDILTLEEIDRDIYRGPVIESYLARTFGGQVAAQALVAATHTVDKAFTVHSLHGYFIAPGDPTAPAIYLVDRVRDGKSYVTRSVRGIQDGEVIFSMQASFHRGDEGIEHMDKMRKVPAPDEIKGTVERMPISSRRVLDEWAEWDIRVIPQDQLELSDFTATEQAVWIRCTADLPDNPTFHQCSLTYLSDMTLLHSALVPHPGEKMQMASLDHAVWFLRPFRVDEWLLYDQRSPSASSGRALTHGRLFNQQGDLVAIVNQEGMTRTLHEGAQSIPMRKD
notes: full length in pET-28a(+), His-tag (Ni-NTA), E. coli BL21(DE3); forward primer encodes MKTIE start; TE4 family
- Km [1]: 5450 µM

B2: TE9 (Corynebacterium glutamicum ATCC 13032) (protein)
chain: MFLTLSGADMSALIKGSGPHHVVVLNGWFGHAAGWGAFADYLDLGNYTWHFWDYRGYGNRKDDAGEFTLEEISADIVAYIDSIEAEKVSILGHSMGGVFMQKVLADSATPIASLVGISAVAAAGTPFDEDSRKLFTSAGHNPDSRRAIIDFTSGSRQPAAWLDDLTDSTVQNSTPEAVEKYFFAWADCNFAADLGTQDLPVYILTGDLDPAVTKTAVESAFGPIYQNLTVEELHDVGHYAIFEHPLGLAARVLRFLDAV
notes: full length in pET-28a(+), His-tag (Ni-NTA), E. coli BL21(DE3); forward primer encodes MFLTL start
- Km [2]: 1810 µM
